According to patent US11673947B2, “Target tissue-specific antigen-binding molecule” (Chugai Seiyaku Kabushiki Kaisha, priority 2012, dated 2023):

Experiments:
[1] = system: BaF/hIL6R (Ba/F3 cells expressing human IL-6 receptor); assay: ADCC (chrome release) with human PBMC as effector cells against BaF/hIL6R cells; format: cell-based
Description: Variant 6RNMSC1-2_F02 with increased effector activity (the heavy chain and light chain sequences are shown in SEQ ID NOs: 94 and 91, respectively) was used. At various concentrations of 6RNMSC1-2_F02, ADCC activity against hIL-6R-expressing cells was assayed in the presence or absence of kynurenine according to the method described in Reference Example 1.
Furthermore, there is a difference in the kynurenine concentration between normal and tumor tissues, and thus it is preferable that the ADCC activity of an antibody is exerted against antigen-expressing tumor cells only at the kynurenine concentration in tumor tissues, while at the normal-tissue kynurenine concentration, the ADCC activity is impaired or not exerted. Then, 6RNMSC1-2_F02 was assessed for ADCC activity against hIL-6R-expressing cells at various kynurenine concentrations according to the method described in Reference Example 2. […] Furthermore, in contrast to the approximately 10% ADCC activity at 4 to 6 μM which is considered to be the kynurenine concentration in normal tissues, the ADCC activity at 30 to 40 μM which is considered to be the kynurenine concentration in tumor tissues was about 25%.
Antibodies that bind antigens in a kynurenine-dependent manner were assessed for their ADCC activity against antigen-expressing cells at different antibody concentrations according to the method described below. Human peripheral blood mononuclear cells (hereinafter referred to as human PBMC) were used as effector cells to measure the ADCC activity of each test antibody as follows.
Syringes pre-filled with 200 μl of 1000 units/ml heparin solution (Novo-Heparin 5000 units for Injection; Novo Nordisk) were used to collect 50 ml of peripheral blood from healthy volunteers (male adult) affiliated with Chugai Pharmaceutical Co. Ltd. The peripheral blood was diluted two-fold with PBS(−), and divided into four equal parts, each of which was transferred into a pre-centrifuged leukocyte separation tube Leucosep (Greiner Bio-One) containing 15 ml of Ficoll-Paque PLUS. The separation tubes containing an aliquot of the peripheral blood were centrifuged at 2150 rpm for ten minutes at room temperature. Then, the resulting mononuclear cell fractions were collected from the tubes. The cells in each fraction were washed once with RPMI-1640 (nacalai tesque) supplemented with 10% FBS (hereinafter referred to as 10% FBS/RPMI), and then suspended at a cell density of 1×10^7 cells/ml in 10% FBS/RPMI. The cell suspensions were used as the human PBMC solution in subsequent experiments. […]
ADCC activity was assessed based on specific chrome release rate determined by chrome release assay. […]

BaF/hIL-6R cells = assay: Flow cytometry, binding to membrane-type hIL-6R on BaF/hIL-6R cells; format: cell-based
Description: 6RNMSC1-2_F02 antibody which has an antigen-binding activity in the presence of kynurenine as described in Example 14 was assessed for its binding to soluble hIL-6R. As a first step in assessing the ADCC activity of 6RNMSC1-2_F02 to hIL-6R-expressing cells, 6RNMSC1-2_F02 was evaluated as to whether it has the ability to bind to membrane-type hIL-6R expressed in hIL-6R-expressing cells. Specifically, the binding of 6RNMSC1-2_F02 to cells of the BaF/hIL-6R line (WO2012/073992) was assayed and analyzed using a flow cytometer. An appropriate number of BaF/hIL-6R cells were prepared and blocked with PBS containing 2% FBS on ice for one hour or more. Supernatant was removed from the blocked cells by centrifugation, and 100 μl of 6RNMSC1-2_F02 or the control antibody MRA (the heavy chain and light chain sequences are shown in SEQ ID NOs: 92 and 93, respectively) was added under two conditions: in the presence or absence of a final concentration of kynurenine at 100 μM. In this step, the antibodies were contacted with cell-membrane hIL-6R on ice for 30 minutes. […] Then, in the presence or absence of kynurenine, the complex was contacted with a secondary antibody (Beckman Coulter IM1627) that recognizes the antibody constant region. […] The binding of 6RNMSC1-2_F02 to the prepared cells was assayed and analyzed using the BD FACS cant II Flow Cytometer (BD).

B1: 6RNMSC1-2_F02: antibody that binds to hIL-6R in the presence of kynurenine; SEQ ID NOs: 86 and 87 (antibody, listed as Homo sapiens, V domains shown)
VH: QVQLVQSGAEVKKPGSSVKVSCKASGGTFSSYAISWVRQAPGQGLEWMGGIIPIFGTANYAQKFQGRVTITADESTSTAYMELSSLRSEDTAVYYCARDAPVVARPRGAFDIWGQGTMVTVSS
VL: DIVMTQTPLSSPVTLGQPASISCRSSQSLVHSDGNTYLSWLQQRPGQPPRLLIHEISNRFSGVPDRFSGSGAGTNFTLKISRVEAEDVGVYYCMQATQFPRTFGQGTKVEIK
- ADCC activity ([1]; at 4 to 6 μM kynurenine (considered the concentration in normal tissues)): approximately 10%
- ADCC activity ([1]; at 30 to 40 μM kynurenine (considered the concentration in tumor tissues)): about 25%
- ADCC activity against hIL-6R-expressing cells ([1]; in the presence of kynurenine, various antibody concentrations, variant with increased effector activity): induced by 6RNMSC1-2_F02 in an antibody concentration-dependent manner
- ADCC activity against hIL-6R-expressing cells at various kynurenine concentrations ([1]; various kynurenine concentrations): kynurenine concentration-dependent manner
- fluorescence (binding to membrane-type hIL-6R) (BaF/hIL-6R cells; in the absence of kynurenine): not detectable
- fluorescence (binding to membrane-type hIL-6R) (BaF/hIL-6R cells; in the presence of 100 μM kynurenine): fluorescence shift was observed
